Experimental data published in US20250171534A1 (D2M BIOTHERAPEUTICS, published 2025).
Where “and” joins values, the source holds several entries; their conditions need not be identical. Equal values may be shown once.

Tests used:
[1] = biological target: T1, human LILRB2 expressed on cells (human, UniProt Q8N423 22-597); test: flow cytometry, CHO-LILRB2 cells
T1 construct: In 293T cells it was expressed from pCMV3-LILRB2-GFP; also called CHO-LILRB2; Jurkat-LILRB2

[2] = biological target: T2, LILRB1-ECD-HIS (SinoBiological Cat #: 16014-H02H) (human, UniProt Q8NHL6 24-461); test: SPR (Carterra LSA), antibody captured, antigen injected;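 note: kd obtained from kinetic analysis of antibody binding to the antigen, with association and dissociation phases fitted in the instrument software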
T2 construct: Bought protein; also called monomeric antigen LILRB1-ECD-HIS; not shown: His tag

[3] = biological target: T3, LILRB2-ECD-HIS (SinoBiological Cat #: 14132-H02H) (human, UniProt Q8N423 22-460); test: as above
T3 construct: Bought protein; also called monomeric antigen LILRB2-ECD-HIS; not shown: His tag

[4] = biological target: T4, cynomolgus (monkey) LILRB2 expressed on CHO cells (cynomolgus monkey); test: flow cytometry on CHO-cynoLILRB2 cells, non-linear fit of the curves of FIG. 26D
T4 construct: whole, on cells; Putative orthologue; also called cynoLILRB2; cynoRB2

[5] = biological target: T5, LILRB3 expressed on cells (human, UniProt O75022 24-631); test: flow cytometry on CHO-LILRB3 cells
T5 construct: whole, on cells; Expressed with a GFP tag from the bought plasmid; also called human LILRB3; CHO-LILRB3

[6] = biological target: T2, LILRB1-ECD-HIS (SinoBiological Cat #: …); test: BLI (Gator), RB1-ECD-his
[7] = biological target: T6, LILRA6 expressed on cells (human, UniProt Q6PI73 24-481); test: flow cytometry on CHO-LILRA6 cells, non-linear fit of the curves of FIG. 26F
T6 construct: whole, on cells; GFP-tagged; also called human LILRA6; CHO-LILRA6

[8] = biological target: T3, LILRB2-ECD-HIS (SinoBiological Cat #: …); test: BLI (Gator), trace labelled 0.5 µg/mL; unit taken from the Average KD line
[9] = biological target: T1, human LILRB2 expressed on cells; test: flow cytometry, Jurkat-LILRB2 cells
[10] = biological target: T7, human LILRB1 expressed on cells (human, UniProt Q8NHL6 24-650); test: flow cytometry on CHO-LILRB1 cells (CHO-RB1), titrated antibody, labelled anti-human Fc, gMFI
T7 construct: In 293T cells it was expressed from pCMV3-LILRB1-GFP; also called CHO-LILRB1; Jurkat-LILRB1

[11] = biological target: T8, cynomolgus monkey putative LILRB2 (antigen of the Gator measurement) (cynomolgus monkey); test: BLI (Gator), cyno RB2-his
T8 construct: also called cynomolgus monkey LILRB2

[12] = biological target: T3, LILRB2-ECD-HIS (SinoBiological Cat #: …); test: BLI (Gator), trace labelled 2 µg/mL; unit taken from the Average KD line
[13] = biological target: T1, human LILRB2 expressed on cells; test: flow cytometry, Jurkat-LILRB2 cells; remark: listed apart in the source
[14] = biological target: T2, LILRB1-ECD-HIS (SinoBiological Cat #: …); test: BLI (Gator), trace labelled 2 µg/mL; unit taken from the Average KD line
[15] = biological target: T3, LILRB2-ECD-HIS (SinoBiological Cat #: …); test: BLI (Gator), RB2-ECD-his
[16] = biological target: T7, human LILRB1 expressed on cells; test: flow cytometry, CHO-LILRB1 cells
[17] = biological target: T9, LILRA2 expressed on 293T cells (UniProt Q8N149 24-483, limits assumed); test: flow cytometry on 293T cells transiently expressing LILRA2, APC anti-human Fc; gMFI as fold to IgG staining
T9 construct: whole, on cells; GFP-tagged, transient

[18] = biological target: T10, LILRB5 expressed on 293T cells (UniProt O75023 24-590, limits assumed); test: flow cytometry on 293T cells transiently expressing LILRB5, APC anti-human Fc; gMFI as fold to IgG staining
T10 construct: whole, on cells; GFP-tagged, transient

[19] = biological target: T11, LILRA4 expressed on 293T cells (UniProt P59901 24-499, limits assumed); test: flow cytometry on 293T cells transiently expressing LILRA4, antibody 5 µg/mL, APC anti-human Fc; gMFI as fold to IgG staining
T11 construct: whole, on cells; GFP-tagged, transient
T11 sequence (P59901 24-499 limits assumed): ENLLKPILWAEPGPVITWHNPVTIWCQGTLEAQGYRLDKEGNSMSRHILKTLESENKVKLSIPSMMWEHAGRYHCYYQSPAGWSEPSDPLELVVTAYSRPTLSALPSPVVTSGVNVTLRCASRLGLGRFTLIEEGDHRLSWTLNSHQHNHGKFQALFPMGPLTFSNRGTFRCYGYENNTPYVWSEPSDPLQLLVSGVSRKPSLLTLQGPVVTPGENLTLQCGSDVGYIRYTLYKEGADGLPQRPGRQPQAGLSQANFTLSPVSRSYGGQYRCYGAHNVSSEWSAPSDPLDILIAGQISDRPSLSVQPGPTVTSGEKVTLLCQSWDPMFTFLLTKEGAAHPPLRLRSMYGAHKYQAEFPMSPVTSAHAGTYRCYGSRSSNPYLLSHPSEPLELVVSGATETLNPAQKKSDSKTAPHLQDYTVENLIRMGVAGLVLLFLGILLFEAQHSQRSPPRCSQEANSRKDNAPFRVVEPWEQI

T1 sequence (Q8N423 other isoform, or with tags, fused parts or gaps limits assumed): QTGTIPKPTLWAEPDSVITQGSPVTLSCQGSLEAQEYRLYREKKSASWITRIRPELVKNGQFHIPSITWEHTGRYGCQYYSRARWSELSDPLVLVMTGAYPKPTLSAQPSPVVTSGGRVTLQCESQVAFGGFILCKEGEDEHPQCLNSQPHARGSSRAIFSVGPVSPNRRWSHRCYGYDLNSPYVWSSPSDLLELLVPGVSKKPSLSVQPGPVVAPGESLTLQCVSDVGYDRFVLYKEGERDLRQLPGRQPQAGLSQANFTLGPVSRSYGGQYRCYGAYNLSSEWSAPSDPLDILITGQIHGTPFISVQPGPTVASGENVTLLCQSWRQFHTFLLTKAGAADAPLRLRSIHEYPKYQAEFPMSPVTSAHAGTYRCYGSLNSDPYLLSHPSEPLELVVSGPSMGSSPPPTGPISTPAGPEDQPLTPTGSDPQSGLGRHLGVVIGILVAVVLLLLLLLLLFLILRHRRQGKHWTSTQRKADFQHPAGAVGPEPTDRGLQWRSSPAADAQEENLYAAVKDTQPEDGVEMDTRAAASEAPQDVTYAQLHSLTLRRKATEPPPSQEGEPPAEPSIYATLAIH
T3 sequence (Q8N423 other isoform, or with tags, fused parts or gaps H02H H02H): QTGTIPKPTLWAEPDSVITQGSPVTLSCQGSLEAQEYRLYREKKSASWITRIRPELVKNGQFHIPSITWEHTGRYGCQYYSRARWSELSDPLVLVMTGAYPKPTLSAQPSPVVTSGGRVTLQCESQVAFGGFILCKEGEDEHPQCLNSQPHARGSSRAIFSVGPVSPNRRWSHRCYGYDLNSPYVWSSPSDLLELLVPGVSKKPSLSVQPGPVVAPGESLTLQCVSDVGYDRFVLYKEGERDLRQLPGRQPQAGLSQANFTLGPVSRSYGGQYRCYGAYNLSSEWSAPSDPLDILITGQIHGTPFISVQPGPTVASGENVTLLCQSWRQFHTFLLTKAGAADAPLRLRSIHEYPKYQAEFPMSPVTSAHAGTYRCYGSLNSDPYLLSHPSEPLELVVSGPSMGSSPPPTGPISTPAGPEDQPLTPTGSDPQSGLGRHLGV
T2 sequence (Q8NHL6 other isoform, or with tags, fused parts or gaps H02H H02H): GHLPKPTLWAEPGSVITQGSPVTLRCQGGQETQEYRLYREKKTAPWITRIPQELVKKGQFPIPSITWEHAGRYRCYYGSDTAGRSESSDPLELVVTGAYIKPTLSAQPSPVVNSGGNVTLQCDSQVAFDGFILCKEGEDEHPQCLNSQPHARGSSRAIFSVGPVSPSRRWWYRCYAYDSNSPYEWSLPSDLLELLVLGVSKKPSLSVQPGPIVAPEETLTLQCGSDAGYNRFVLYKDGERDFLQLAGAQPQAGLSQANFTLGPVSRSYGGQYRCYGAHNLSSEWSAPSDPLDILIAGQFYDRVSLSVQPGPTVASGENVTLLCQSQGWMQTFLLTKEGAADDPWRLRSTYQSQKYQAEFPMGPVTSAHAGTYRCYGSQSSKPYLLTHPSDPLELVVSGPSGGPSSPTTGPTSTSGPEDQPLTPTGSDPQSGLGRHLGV
T7 sequence (Q8NHL6 other isoform, or with tags, fused parts or gaps limits assumed): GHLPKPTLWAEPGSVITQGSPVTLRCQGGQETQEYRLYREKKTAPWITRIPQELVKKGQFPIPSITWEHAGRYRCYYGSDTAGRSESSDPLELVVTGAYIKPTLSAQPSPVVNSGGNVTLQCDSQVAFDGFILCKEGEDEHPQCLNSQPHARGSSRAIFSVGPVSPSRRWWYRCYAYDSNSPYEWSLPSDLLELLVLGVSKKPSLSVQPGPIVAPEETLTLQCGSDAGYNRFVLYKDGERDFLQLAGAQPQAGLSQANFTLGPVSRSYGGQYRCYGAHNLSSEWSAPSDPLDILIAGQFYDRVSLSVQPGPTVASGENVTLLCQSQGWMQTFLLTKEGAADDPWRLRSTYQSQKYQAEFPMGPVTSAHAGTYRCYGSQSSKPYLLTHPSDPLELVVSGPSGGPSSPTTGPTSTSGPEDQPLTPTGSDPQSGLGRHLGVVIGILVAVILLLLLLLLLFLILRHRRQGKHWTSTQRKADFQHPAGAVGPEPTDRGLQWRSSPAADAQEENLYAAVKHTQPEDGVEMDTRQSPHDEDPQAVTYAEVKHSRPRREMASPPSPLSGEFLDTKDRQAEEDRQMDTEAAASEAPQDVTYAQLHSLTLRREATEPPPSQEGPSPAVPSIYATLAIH
T10 sequence (O75023 24-590 limits assumed): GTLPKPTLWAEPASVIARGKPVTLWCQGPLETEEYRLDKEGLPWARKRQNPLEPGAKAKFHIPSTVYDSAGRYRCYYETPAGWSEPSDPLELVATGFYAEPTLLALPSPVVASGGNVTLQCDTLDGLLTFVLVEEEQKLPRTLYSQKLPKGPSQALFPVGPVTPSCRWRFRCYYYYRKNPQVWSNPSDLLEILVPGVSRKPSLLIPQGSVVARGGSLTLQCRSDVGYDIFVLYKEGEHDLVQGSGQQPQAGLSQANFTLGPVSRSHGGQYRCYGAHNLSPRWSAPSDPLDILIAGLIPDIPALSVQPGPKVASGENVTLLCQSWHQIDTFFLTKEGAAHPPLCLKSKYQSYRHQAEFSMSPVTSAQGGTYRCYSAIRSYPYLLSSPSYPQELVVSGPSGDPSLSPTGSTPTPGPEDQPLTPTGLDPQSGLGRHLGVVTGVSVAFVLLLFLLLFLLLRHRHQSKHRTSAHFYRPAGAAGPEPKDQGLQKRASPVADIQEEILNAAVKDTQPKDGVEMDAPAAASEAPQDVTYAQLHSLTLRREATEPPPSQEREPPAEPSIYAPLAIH
T6 sequence (Q6PI73 24-481): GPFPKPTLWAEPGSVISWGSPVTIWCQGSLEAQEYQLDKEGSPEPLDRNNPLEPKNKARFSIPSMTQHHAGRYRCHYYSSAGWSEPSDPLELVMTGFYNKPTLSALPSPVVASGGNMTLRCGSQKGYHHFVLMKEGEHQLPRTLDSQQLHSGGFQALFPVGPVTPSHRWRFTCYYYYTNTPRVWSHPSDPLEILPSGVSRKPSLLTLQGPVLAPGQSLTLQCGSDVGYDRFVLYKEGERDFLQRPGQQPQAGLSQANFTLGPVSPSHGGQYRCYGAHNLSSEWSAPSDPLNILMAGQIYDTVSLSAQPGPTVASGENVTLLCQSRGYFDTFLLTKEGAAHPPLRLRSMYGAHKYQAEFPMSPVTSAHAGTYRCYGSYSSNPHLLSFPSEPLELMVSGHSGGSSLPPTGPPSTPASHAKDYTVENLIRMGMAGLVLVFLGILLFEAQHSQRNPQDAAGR
T9 sequence (Q8N149 24-483 limits assumed): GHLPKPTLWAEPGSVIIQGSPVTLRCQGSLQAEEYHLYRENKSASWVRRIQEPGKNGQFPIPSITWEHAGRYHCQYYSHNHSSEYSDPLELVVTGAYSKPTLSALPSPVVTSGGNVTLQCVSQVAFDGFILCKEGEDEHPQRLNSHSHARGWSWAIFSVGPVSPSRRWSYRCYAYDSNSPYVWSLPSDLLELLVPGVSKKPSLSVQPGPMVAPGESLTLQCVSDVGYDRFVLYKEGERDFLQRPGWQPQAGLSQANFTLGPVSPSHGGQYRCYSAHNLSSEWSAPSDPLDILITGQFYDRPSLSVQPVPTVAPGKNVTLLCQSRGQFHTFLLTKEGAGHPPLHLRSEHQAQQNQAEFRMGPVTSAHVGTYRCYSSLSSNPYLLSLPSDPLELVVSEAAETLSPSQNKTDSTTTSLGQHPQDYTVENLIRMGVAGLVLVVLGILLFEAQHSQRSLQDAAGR

B1: D2M002-002 (antibody, V domains shown)
VH: EVQLQQSGPELVKPGASVKMSCKASGYTFTRYVMHWVKQKPGQGLEWIGYINPNNDGTKYNEKFKGKVTLTSDKSSSTAYMELSSLTSEDSAVYYCARGDLEILPYYDHARNAMDYWGQGTSVTVSS
VL: DVQMIQSPASLSASVGETVTITCRASENIYSYLAWYQQKQGKSPQLLVYNAKTLAEGVPSRFSGSGSGTQFSLKINSLQPEDFGSYYCQHFWSTPPTFGGGTKLEIK
notes: Hit from immunised mice; also called clone #2; anti-LILRB1/2 clone #2
[1]
  EC50: 0.21 mg/L
  gMFI (max): 21900
[2]
  Kd: 9.77 nM
[3]
  Kd: 1.57 nM
[4]
  EC50: 2.85 mg/L
[5]
  EC50: 4 µg/mL and 26.6 nM
[6]
  Kd: 2.12 nM
[7]
  EC50: 9.46 mg/L
[8]
  Kd: 0.265 nM
[9]
  EC50 (read off the curve): ~0.3 mg/L
[10]
  EC50 (read off the curve): ~0.2 mg/L
[11]
  Kd: 1.36 nM
[12]
  Kd: 0.242 nM
[13]
  EC50: 0.258 mg/L
[14]
  Kd: 3.45 nM
[15]
  Kd: 0.469 nM
[16]
  EC50: 0.326 mg/L
[17]
  binding result: no binding (tested: 5 µg/mL)
[18]
  binding result: no binding (tested: 5 µg/mL)
[19]
  binding result: binds
